Literature values as cited in article PMC4077824, “Conserved Prosegment Residues Stabilize a Late-Stage Folding Transition State of Pepsin Independently of Ground States” (PLoS ONE, 2014).

System: αLP
Excerpt: General thermodynamic and kinetic features of protein folding are known, such as that the natively folded conformation of a protein is thermodynamically stabilized and that there is a relationship between topology and folding rate, which holds for both two-state and multi-state folding proteins, [3]. […] In the case of pepsin, Rp was characterized by a ΔG unf of 5.8 kcal/mol, a 10% increase in unordered secondary structure and identical tertiary structure to Np (both yield R g ∼20 Å).

B1: αLP: serine peptidase αLP (alpha-lytic protease) (protein, UniProt P00778 200-397, looked up)
Alpha-lytic protease: ANIVGGIEYSINNASLCSVGFSVTRGATKGFVTAGHCGTVNATARIGGAVVGTFAARVFPGNDRAWVSLTSAQTLLPRVANGSSFVTVRGSTEAAVGAAVCRSGRTTGYQCGTITAKNVTANYAEGAVRGLTQGNACMGRGDSGGSWITSAGQAQGVMSGGNVQSNGNNCGIPASQRSSLFERLQPILSQYGLSLVTG
In the case of B1, the “ΔG N-I” value (native state relative to an intermediate state, ref [8]) is listed as -4 kcal/mol, the “stability of intermediate over native state” value (αLP intermediate more stable than native state, ref [4]) is listed as 4 kcal/mol and the ΔG unf (αLP intermediate, ref [4]) is listed as 1 kcal/mol.
